Laboratory results from US20250281653A1, “METHODS FOR TREATING PROSTATE CANCER WITH RADIOPHARMACEUTICALS” (ARTBIO, Inc., priority 2024, published 2025).
“And” between values parts separate entries of the source, which are not always exact repeats. Identical values can stand only once.

Experiments:
[1] = design: species or system human; conditions: in vivo
Method: (§1) Study drug administration: a single injection of 10 MBq for ^212Pb-Compound 1 was administered for each participant. Administration was by slow bolus IV injection via a 3-way adapter coupled to a conventional isotonic saline solution. • The timepoint of injection of ^212Pb-Compound 1 was defined as Day 0, 0 hours. […] Full blood and plasma were measured separately to investigate ligand in vivo stability. […]
(§2) • Non-invasive gamma camera imaging with both planar gamma imaging (whole body scintigraphy) and SPECT/CT was performed at 2 timepoints following injection of ^212Pb-Compound 1: • 1-3 hours and 16-24 hours • The planar gamma camera imaging was acquired immediately before the SEPCT/CT imaging • Performed on a Siemens Symbia Intevo Bold hybrid scanner using a medium energy low penetration (MELP) or high energy (HE) collimator. • The same scanner was used for all acquisitions of all patients in the study. • Scanner room background radiation was measured 0.5 m from the SPECT/CT scanner table, over a time period of one minute, before the participant entered the scanner room. […]

[2] = design: species or system human; conditions: in vivo; remark: listed apart in the source
Method: as §1, §2

[3] = design: species or system human; conditions: in vivo; remark: listed apart in the source
Method: The sample size was three participants.
Study drug administration: a single injection of 10 MBq for ^212Pb-Compound 1 was administered for each participant. Administration was by slow bolus IV injection via a 3-way adapter coupled to a conventional isotonic saline solution. • The timepoint of injection of ^212Pb-Compound 1 was defined as Day 0, 0 hours. Imaging, whole-body probe and blood assessments of clearance were performed at the following timepoints: • Gamma camera imaging (both planar and SPECT/CT) was scheduled 1-3 hours and 16-24 hours post injection. • Clearance was assessed with blood sampling and whole-body probe measurements at the following timepoints: 15 min after dose (+/−15 min window), 1 h after dose (+1 h window), 4 h after dose (+2 h window), 16 h after dose (+8 h window). Full blood and plasma were measured separately to investigate ligand in vivo stability. Follow-up: Patients were followed-up for safety and tolerability for 28 days post-administration of ^212Pb-Compound 1, with visits on Day 14 and Day 28. Adverse events were reported per CTCAE v5 from time of informed consent until end of follow-up. Patients were followed-up for efficacy biomarkers (PSA, ALP) for 28 days post-administration of ^212Pb-Compound 1.
All 3 patients consented and administered ^212Pb-Compound 1 subsequently completed the planned safety follow up period (no withdrawals from the clinical trial).

[4] = Baseline F18-PSMA-PET/CT: normal tissue evaluation at screening; format: in vivo, human; conditions: individual participants
Method: Participants underwent a standard of care diagnostic ^18F-PSMA-PET/CT at baseline (i,e, within six weeks prior to administration of ^212Pb-Compound 1).
PSMA-PET/CT was conducted using the radiotracer ^18F-PSMA-1007: dose 2.5 MBq/kg (minimum 200 MBq, maximum 300 MBq) with PET acquisition performed approximately 120 minutes post-injection.
Each patient received a baseline PSMA-PET/CT evaluation utilizing an F18-PSMA-PET tracer during the screening period (i.e. prior to ^212Pb-Compound 1 administration).
The pattern of PSMA-PET CT tracer uptake in normal organs is within expectations in each case; with notable uptake in the salivary glands (SUVmax range 20.06-30.7), kidneys (SUVmax range 18.7-35.2) and liver (SUVmax range 14.5-25.5).

[5] = in vivo; cited from earlier work

Q: With `NC(=O)CN1CCN(CC(N)=O)CCN(CC(N)=O)C(Cc2ccc(NC(=S)NC[C@H]3CC[C@H](C(=O)N[C@@H](Cc4ccc5ccccc5c4)C(=O)NCCCC[C@H](NC(=O)N[C@@H](CCC(=O)O)C(=O)O)C(=O)O)CC3)cc2)CN(CC(N)=O)CC1` (stereo partly shown) [^212Pb-Compound 1, metal not drawn] as the molecule, how does the “Participants with ^212Pb-Compound 1 uptake by the liver” value [1] read?
A: one participant at the 1 hr time point

Q: And the “^212Pb-Compound 1 uptake in retrocaval lymph node metastasis (most PSMA-avid lesion)” value [2]?
A: uptake at the 1 hour time point for one lesion

Q: What about the “Adverse reactions, SAEs, SUSARs or deaths” value [3] of the same molecule?
A: No adverse reactions, serious adverse events (SAEs), suspected unexpected serious adverse events (SUSARs) or deaths were reported

Q: And the “CTCAE grade of the TEAE abdominal pain” value [3]?
A: 2

Q: And the “Differences or trends in hematology, biochemistry and urinalysis from baseline (incl. ALT, AST, bilirubin, albumin, egfr, creatinine)” value [3]?
A: no clinically significant differences or trends

Q: And the “ECOG performance score at all visits evaluated” value [3]?
A: 1

Q: What about the “ECOG performance status, change from baseline to end of study visit” value [3] of the same molecule?
A: remained unchanged

Q: And the “Individual measurements of hematological and clinical chemistry parameters” value [3]?
A: within their normal reference ranges

Q: What about the “Investigator-assessed relationship of all TEAEs to ^212Pb-Compound 1” value [3] of the same molecule?
A: probably unrelated

Q: What about the “Number (%) of Participants with TEAE: Abdominal pain” value [3] of the same molecule?
A: 1 (33)

Q: And the “Number (%) of Participants with TEAE: Constipation” value [3]?
A: 1 (33)

Q: What about the “Number (%) of Participants with TEAE: Erythema” value [3] of the same molecule?
A: 1 (33)

Q: What about the “Number (%) of Participants with TEAE: General disorders and administration site conditions” value [3] of the same molecule?
A: 1 (33)

Q: And the “Number (%) of Participants with TEAE: Injury, poisoning and procedural complications” value [3]?
A: 1 (33)

Q: What about the “Number (%) of Participants with TEAE: Localized oedema” value [3] of the same molecule?
A: 1 (33)

Q: What about the “Number (%) of Participants with TEAE: Skin and subcutaneous tissue disorders” value [3] of the same molecule?
A: 1 (33)

Q: What about the “Number (%) of Participants with TEAE: Tooth fracture” value [3] of the same molecule?
A: 1 (33)

Q: And the “Number (%) of Participants with TEAE: Vomiting” value [3]?
A: 1 (33)

Q: What about the “Performance status (ECOG)” value [3] of the same molecule?
A: 1

Q: What about the “Risk of xerostomia inferred from absent salivary gland uptake” value [3] of the same molecule?
A: lower risk of xerostomia

Q: For `O=C(O)CC[C@H](NC(=O)N[C@@H](CCCCNC(=O)[C@H](Cc1ccc2ccccc2c1)NC(=O)c1ccc(CNC(=O)[C@H](CCC(=O)O)NC(=O)[C@H](CCC(=O)O)NC(=O)c2ccc([18F])nc2)cc1)C(=O)O)C(=O)O` [Compound F18-PSMA-PET], which SUV max, Bladder, including contents [4] is on record?
A: 8.3 and 2.8 and 3

Q: And the SUV max, Blood pool [4]?
A: 1.2 and 0.8 and 1.3

Q: And the SUV max, Bone Marrow [4]?
A: 1.8 and 1.3 and 1

Q: What about the SUV max, Kidneys [4] of the same molecule?
A: 35.2 and 26.8 and 18.7

Q: And the SUV max, Liver [4]?
A: 14.5 and 25.5 and 14.8

Q: And the SUV max, Salivary gland [4]?
A: 30.7 (2×) and 20.6

Q: What about the SUV max, Spleen [4] of the same molecule?
A: 16.2 and 7.2 and 15.3

Q: What about the SUV mean, Bladder, including contents [4] of the same molecule?
A: 6.2 and 2.3 (2×)

Q: And the SUV mean, Blood pool [4]?
A: 0.7 and 0.6 and 1.1

Q: And the SUV mean, Bone Marrow [4]?
A: 1.3 and 0.9 and 0.7

Q: What about the SUV mean, Kidneys [4] of the same molecule?
A: 19.2 and 16.1 and 11.4

Q: What about the SUV mean, Liver [4] of the same molecule?
A: 11.3 and 21.8 and 12.5

Q: And the SUV mean, Salivary gland [4]?
A: 18.5 and 13 and 19.8

Q: What about the SUV mean, Spleen [4] of the same molecule?
A: 12.6 and 6.1 and 13.7

Q: What about the SUV max, Kidneys ([4]; listed as PSMA-PET CT tracer) of the same molecule?
A: 18.7 to 35.2

Q: And the SUV max, Liver ([4]; listed as PSMA-PET CT tracer)?
A: 14.5 to 25.5

Q: For `O=C([O-])CN1CCN(CC(=O)[O-])CCN(CC(=O)NCC2CCC(C(=O)N[C@@H](Cc3ccc4ccccc4c3)C(=O)NCCCC[C@H](NC(=O)N[C@@H](CCC(=O)O)C(=O)O)C(=O)O)CC2)CCN(CC(=O)[O-])CC1.[177Lu+3]` (stereo partly shown) [^177Lu-PSMA-617, lutetium Lu 177 vipivotide tetraxetan], which “Dry mouth (i.e., xerostomia), proportion of population” value [5] is on record?
A: 38.8%
